According to patent publication US20260028400A1 (AIMED BIO, published 2026):
Positions count from the first letter of the chain named.

B1: P015002 (antibody, V domains shown)
VH: EVQLLESGGGLVQPGGSLRLSCAASGFTFSDYSMSWVRQAPGKGLEWVSGISHNGGSTYYADSVKGRFTISRDNSKNTLYLQMSSLRAEDTAVYYCARDVSRWSKTRWSYDNAMDVWGQGTLVTVSS
VL: QSVLTQPPSASGTPGQRVTISCTGSSSNIGSNYVSWYRQLPGTAPKLLIYSDSNRPSGVPDRFSGSKSGTSASLAISGLRSEDEADYYCATWDASLSAYVFGGGTKLTVL
B2: P015042v1-2 (antibody, V domains shown)
VH: EVQLLESGGGLVQPGGSLRLSCAASGFTFSDYAMSWVRQAPGKGLEWVSVISSDKGSIYYADSVKGRFTISRDNSKNTLYLQMNSLRAEDTAVYYCAKDRSRDMEVDFDYWGQGTLVTVSS
VL: B1 VL with T23S, S35T, R38Q, S51D, D52S, N54Q, A90G, A94Y, S97N, A98G
notes: Variant of P015042v1, tested as IgG; also called HC G55 substituted with K
B3: P015042v1-4 (antibody, V domains shown)
VH: B2 VH with K55G
VL: B1 VL with T23S, S35T, R38Q, S51D, D52K, N54Q, A90G, A94Y, S97N, A98G
notes: Variant of P015042v1, tested as IgG; also called LC S51 substituted with K
B4: P015042v1-3 (antibody, V domains shown)
VH: B2 VH with K55G
VL: B1 VL with T23S, S35T, R38Q, S51D, D52A, N54Q, A90G, A94Y, S97N, A98G
notes: Variant of P015042v1, tested as IgG; also called LC S51 substituted with A
B5: P015042v1-1 (antibody, V domains shown)
VH: B2 VH with K55V
VL: B1 VL with T23S, S35T, R38Q, S51D, D52S, N54Q, A90G, A94Y, S97N, A98G
notes: Variant of P015042v1, tested as IgG; also called HC G55 substituted with V
B6: P015042v1-5 (antibody, V domains shown)
VH: B2 VH with K55G
VL: B1 VL with T23S, S35T, R38Q, S51D, D52S, N54Q, A90G, A94Y, S97N
notes: Variant of P015042v1, tested as IgG; also called LC G95 substituted with A
B7: P015043 (antibody, V domains shown)
VH: EVQLLESGGGLVQPGGSLRLSCAASGFTFSNYDMSWVRQAPGKGLEWVSWISPGGSSIYYADSVKGRFTISRDNSKNTLYLQMNSLRAEDTAVYYCAKTLTRFDYWGQGTLVTVSS
VL: B1 VL with S31N, Y33N, R38Q, S51Y, N54H, A90G, A94S, A98G
B8: P015044-vc-PAB-MMAE (antibody, IgG1, V domains shown)
VH: EVQLLESGGGLVQPGGSLRLSCAASGFTFSNYAMHWVRQAPGKGLEWVSIIYPDDDTRYNPSFRGRFTISRDNSKNTLYLQMNSLRAEDTAVYYCARDLLYAGDYWGQGTLVTVSS
VL: QSVLTQPPSASGTPGQRVTISCGGNNIESKAVHWYQQLPGTAPKLLIYANNKRPSGVPDRFSGSKSGTSASLAISGLRSEDEADYYCQSYDSNKVVFGGGTKLTVL
modifications: maleimidocaproyl-valine-citrulline-p-aminobenzyloxycarbonyl monomethyl auristatin E on cysteine sulfhydryls of reduced disulfides; positions not given; average 3.0 drugs per antibody
B9: P015004-vc-PAB-MMAE (antibody, IgG1, V domains shown)
VH: EVQLLESGGGLVQPGGSLRLSCAASGFTFSDYAMAWVRQAPGKGLEWVSIIYPGDSETIYSPSFEGRFTISRDNSKNTLYLQMNSLRAEDTAVYYCARDTYWEGYFDLWGQGTLVTVSS
VL: EIVLTQSPGTLSLSPGERATLSCRASQGISNYLAWYQQKPGQAPRLLIYDASNLESGIPDRFSGSGSGTDFTLTISRLEPEDFAVYYCQQYANLPYTFGQGTKVEIK
modifications: maleimidocaproyl-valine-citrulline-p-aminobenzyloxycarbonyl monomethyl auristatin E on cysteine sulfhydryls of reduced disulfides; positions not given; average 3.0 drugs per antibody
B10: P015043-vcPAB-MMAE (antibody, IgG1, V domains shown)
VH: B7 VH
VL: B1 VL with S31N, Y33N, R38Q, S51Y, N54H, A90G, A94S, A98G
modifications: maleimidocaproyl-valine-citrulline-p-aminobenzyloxycarbonyl monomethyl auristatin E on cysteine sulfhydryls of reduced disulfides; positions not given; DAR 3.32
B11: P015018 scFv (scFv, V domains shown)
VH: EVQLLESGGGLVQPDGSMRLICAASGFTFSSYAKHWVRQAPGKGLEWVSEIYTSGSTNYNPSLKSRFTISRDNSKNTLYLQMNSLRAEDTAVYYCARDTWWEGYFDLWGQGTLVTVSS
VL: B9 VL with G28S, I29V, N31T, N53S, Y91S, A92Y, Y96H
notes: HA-tagged scFv
B12: P015004 scFv (scFv, V domains shown)
VH: B9 VH
VL: B9 VL
notes: HA-tagged scFv
B13: P015017 scFv (scFv, V domains shown)
VH: EVQLLESGGGLVQPGGSLRLSCAASGFTFSGYAMSWVRQAPGKGLEWVSVISPGSGSKYYADSVRGRFTVSRDNSKNTLYLQMNSLRAEDTAVYYCARYPLLRYAGALYSAYAMDVWGQGTLVTVSS
VL: B1 VL with T23S, R38Q, S51A, D52N, N54H, A90G, T91A, A94S, S97N, A98G
notes: HA-tagged scFv
B14: P015016 scFv (scFv, V domains shown)
VH: EVQLLESGGGLVQTGGSLRLSCAASGFTFSDYAMSWVRQAPGKGLEWVSAISHGGSSKYYADSVKGRFTISRDNSKNTLYLQMNSLRAEDTAVYYCARVSLDFDYWGQGTLVAVSS
VL: B1 VL with T23S, Y33T, V34F, S35N, R38Q, S51A, N54H, T91A
notes: HA-tagged scFv

Target: T1, human ROR1 (human, UniProt Q01973 30-403, limits assumed)
T1 construct: also called human ROR1 protein
Test: ELISA, IgG on coated human ROR1, OD450
Procedure: (§1) A 96-well plate was coated at 4° C. for 16 hours with each of human ROR1 and mouse ROR1 proteins at a concentration of 2 μg/ml and then blocked using […]. […] After washing with PBST and distilled water, binding at room temperature for 1 hour using a goat-derived HRP-conjugated anti-human antibody (Invitrogen, 31482, Goat anti-Human IgG F(ab′)₂ Secondary Antibody, HRP) and then washing again using PBST and distilled water were performed. After color development by adding TMB substrate solution (Thermo Scientific, 34029, 1-Step™ Ultra TMB-ELISA Substrate Solution), the color reaction was stopped with stop solution (Invitrogen, SS04, ELISA Stop Solution), and the absorbance was measured at OD 450 nm. It was confirmed that the anti-ROR1 antibody of the present invention and the modified antibody thereof with improved biological and physical properties […] to human ROR1 and mouse ROR1 (FIG. 2).

T1 sequence (Q01973 30-403 limits assumed): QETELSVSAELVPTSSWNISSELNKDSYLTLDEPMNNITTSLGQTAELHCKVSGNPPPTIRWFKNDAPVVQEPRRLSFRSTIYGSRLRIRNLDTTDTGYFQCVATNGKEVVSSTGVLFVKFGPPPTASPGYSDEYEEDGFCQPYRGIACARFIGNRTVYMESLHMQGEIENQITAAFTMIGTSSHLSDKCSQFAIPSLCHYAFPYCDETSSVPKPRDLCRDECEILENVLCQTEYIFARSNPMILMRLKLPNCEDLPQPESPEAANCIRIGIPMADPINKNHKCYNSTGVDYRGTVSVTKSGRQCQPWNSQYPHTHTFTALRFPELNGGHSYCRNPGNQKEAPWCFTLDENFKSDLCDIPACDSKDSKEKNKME

EC50 (read off the curve) [nM]	Binder
~2	B1
~0.5	B2
~0.5	B3
~0.5	B4
~0.5	B5
~0.5	B6

Target: T2, Ig-like (human, UniProt Q01973)
T2 construct: Ig-like domain, His tag; also called Ig-like domain; human ROR1-immunoglobulin domain
Test: ELISA, IgG on coated domain, OD450
Procedure: ELISA was performed to analyze the binding domain using the IgG antibody of the selected clone.
After washing with PBST and distilled water, binding at room temperature for 1 hour using a goat-derived HRP-conjugated anti-human antibody (Invitrogen, 31482, Goat anti-Human IgG F(ab′)₂ Secondary Antibody, HRP) and then washing again using PBST and distilled water were performed. After color development by adding TMB substrate solution (Thermo Scientific, 34029, 1-Step™ Ultra TMB-ELISA Substrate Solution), the color reaction was stopped with stop solution (Invitrogen, SS04, ELISA Stop Solution), and the absorbance was measured at OD 450 nm. The anti-ROR1 antibody clone binding to each domain was analyzed through ELISA (FIG. 3).

T2 sequence (Q01973 39-151 limits assumed): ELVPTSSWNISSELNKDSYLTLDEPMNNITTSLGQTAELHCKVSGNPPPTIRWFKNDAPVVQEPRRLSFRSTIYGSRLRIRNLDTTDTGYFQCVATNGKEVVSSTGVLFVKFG

binding result	Binder
no binding (tested: 300 nM)	B1
no binding (tested: 300 nM)	B7

Target: T3, ROR1 expressed on cell surface (Jeko-1 cell line, AMB-LC-0003T and AMB-LC-0002T patient-derived lung cancer … (human, UniProt Q01973 30-937))
Test: cell-based or functional assay

T3 sequence (Q01973 30-937): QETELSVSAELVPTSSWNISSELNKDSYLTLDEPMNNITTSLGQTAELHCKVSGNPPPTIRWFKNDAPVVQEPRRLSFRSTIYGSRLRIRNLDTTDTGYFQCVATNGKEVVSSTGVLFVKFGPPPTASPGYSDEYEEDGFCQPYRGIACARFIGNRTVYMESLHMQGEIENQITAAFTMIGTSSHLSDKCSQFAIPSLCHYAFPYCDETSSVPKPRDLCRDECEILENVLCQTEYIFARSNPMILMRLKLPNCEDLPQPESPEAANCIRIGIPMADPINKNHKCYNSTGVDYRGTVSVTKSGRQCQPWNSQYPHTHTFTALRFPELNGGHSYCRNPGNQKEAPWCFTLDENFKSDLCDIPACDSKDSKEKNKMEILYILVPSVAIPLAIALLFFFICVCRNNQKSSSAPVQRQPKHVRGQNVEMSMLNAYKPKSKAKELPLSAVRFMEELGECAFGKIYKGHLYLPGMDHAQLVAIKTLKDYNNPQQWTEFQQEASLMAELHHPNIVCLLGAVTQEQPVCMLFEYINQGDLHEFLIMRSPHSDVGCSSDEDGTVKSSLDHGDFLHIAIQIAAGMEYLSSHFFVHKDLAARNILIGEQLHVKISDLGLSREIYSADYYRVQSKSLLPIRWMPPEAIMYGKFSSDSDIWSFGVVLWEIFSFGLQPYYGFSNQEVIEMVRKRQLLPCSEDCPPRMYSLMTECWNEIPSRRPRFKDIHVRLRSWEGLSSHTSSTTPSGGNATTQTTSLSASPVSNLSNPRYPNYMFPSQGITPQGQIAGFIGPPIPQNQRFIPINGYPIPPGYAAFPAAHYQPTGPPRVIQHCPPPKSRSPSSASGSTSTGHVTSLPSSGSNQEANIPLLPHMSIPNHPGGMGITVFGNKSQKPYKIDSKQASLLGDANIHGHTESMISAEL

Fold Change of IC50, AMB-LC-0002T/AMB-LC-0003T [fold]	IC50 (nM), spheroid volume after 6 days of treatment, AMB-LC-0003T (high ROR1 expression) [nM]	IC50 (nM), spheroid volume, AMB-LC-0002T (very low ROR1 expression) [nM]	Binder
22.7	5.38	122	B8
15	10.6	160	B9
4.8	34.6	165	B10

Target: T2, Ig-like
Test: scFv ELISA on coated domain, anti-HA-HRP, OD450
Procedure: (§2) Thereafter, the plate was treated with each scFv and reacted for 2 hours, followed by washing four times using PBST and distilled water. After binding at room temperature for 1 hour using an HRP-conjugated anti-HA antibody (Roche, 12013819001, Anti-HA-Peroxidase, High Affinity) capable of binding to the HA tag, washing was performed six times using PBST and distilled water. After color development by adding TMB substrate solution (Thermo Scientific, 34029, 1-Step™ Ultra TMB-ELISA Substrate Solution), the color reaction was stopped with stop solution (Invitrogen, SS04, ELISA Stop Solution), and the absorbance was measured at OD 450 nm. The scFv binding to each domain was analyzed through ELISA.

binding result	Binder
no binding	B11
no binding	B12
binds	B13
binds	B14

Target: T4, FZD+KRD (human, UniProt Q01973)
T4 construct: frizzled plus kringle domains, His tag; also called FK domain; human ROR1-frizzled-kringle domain
Test: scFv ELISA on coated domain, anti-HA-HRP, OD450
Procedure: as §2

T4 sequence (Q01973 165-395 limits assumed): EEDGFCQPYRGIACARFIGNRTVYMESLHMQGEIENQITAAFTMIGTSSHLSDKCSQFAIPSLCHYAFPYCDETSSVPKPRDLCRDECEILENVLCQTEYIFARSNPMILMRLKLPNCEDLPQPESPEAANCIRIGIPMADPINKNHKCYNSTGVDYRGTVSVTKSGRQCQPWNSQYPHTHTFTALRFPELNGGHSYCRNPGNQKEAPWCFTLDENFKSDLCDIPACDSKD

binding result	Binder
no binding	B11
no binding	B12
no binding	B13
no binding	B14

Target: T5, FZD (human, UniProt Q01973)
T5 construct: frizzled domain, His tag; also called Frizzled domain; human ROR1-frizzled domain
Test: scFv ELISA on coated domain, anti-HA-HRP, OD450
Procedure: as §2

T5 sequence (Q01973 165-305 limits assumed): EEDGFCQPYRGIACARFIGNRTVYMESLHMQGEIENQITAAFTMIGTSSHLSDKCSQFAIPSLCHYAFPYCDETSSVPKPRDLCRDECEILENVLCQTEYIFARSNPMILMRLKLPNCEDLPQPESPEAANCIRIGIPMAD

binding result	Binder
no binding	B11
no binding	B12
no binding	B13
no binding	B14

Target: T6, mouse ROR1 (mouse, UniProt Q9Z139 30-403, limits assumed)
T6 construct: also called mouse ROR1 protein
Test: SPR (Biacore 3000), mouse ROR1 on CM5 chip, IgG injected, 1:1 Langmuir
Procedure: (§3) To more quantitatively analyze the binding ability of the anti-ROR1 antibody to ROR1, SPR (surface plasmon resonance) was performed. A Biacore 3000 device (GE Healthcare) was used. Using the amine coupling method, human ROR1 or mouse ROR1 was diluted with 10 mM sodium acetate, pH 4.5 and immobilized on a CM5 sensor chip (GE Healthcare) at 300 response units (RU). The activated portion remaining on the surface of the sensor chip was deactivated by adding 1 M ethanolamine-HCl (pH 8.5).

T6 sequence (Q9Z139 30-403 limits assumed): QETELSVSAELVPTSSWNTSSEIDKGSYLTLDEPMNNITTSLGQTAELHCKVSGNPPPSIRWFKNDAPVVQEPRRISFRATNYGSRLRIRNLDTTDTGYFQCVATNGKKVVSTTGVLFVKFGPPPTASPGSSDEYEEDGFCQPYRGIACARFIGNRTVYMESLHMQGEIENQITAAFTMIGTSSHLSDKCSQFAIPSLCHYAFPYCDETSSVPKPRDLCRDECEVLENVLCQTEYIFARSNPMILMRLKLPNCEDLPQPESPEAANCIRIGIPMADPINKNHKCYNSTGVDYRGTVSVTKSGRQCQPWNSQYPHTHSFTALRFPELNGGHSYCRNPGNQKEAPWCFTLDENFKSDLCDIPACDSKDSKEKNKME

Kd [nM]	koff [s⁻¹]	kon [M⁻¹ s⁻¹]	Binder
6	0.000278	46400	B1
0.0831	0.000226	2.71e+06	B2
0.132	0.000282	2.14e+06	B3
0.127	0.000548	4.3e+06	B4
0.192	0.00043	2.24e+06	B5
0.0416	0.000106	2.54e+06	B6

Target: T1, human ROR1
Test: SPR (Biacore 3000), human ROR1 on CM5 chip, IgG injected, 1:1 Langmuir
Procedure: as §3

Kd [nM]	koff [s⁻¹]	kon [M⁻¹ s⁻¹]	Binder
3.71	0.000202	54300	B1
0.0152	4.08e-05	2.66e+06	B2
0.0213	4.34e-05	2.04e+06	B3
0.0262	7.95e-05	3.03e+06	B4
0.033	7.22e-05	2.19e+06	B5
0.00748	1.89e-05	2.53e+06	B6

Target: T3, ROR1 expressed on cell surface (Jeko-1 …)
Test: cell-based or functional assay
Remark: another data set of the same source

Fold Change of IC50, AMB-LC-0002T/AMB-LC-0003T [fold]	IC50 (nM), spheroid volume, AMB-LC-0002T (low ROR1 expression) [nM]	IC50 (nM), spheroid volume, AMB-LC-0003T (high ROR1 expression) [nM]	Binder
39.7	261	6.59	B8

Target: T6, mouse ROR1
Test: ELISA, IgG on coated mouse ROR1, OD450
Procedure: as §1

EC50 (read off the curve) [nM]	Binder
~3	B1
~0.3	B2
~0.3	B3
~0.3	B4
~0.3	B5
~0.3	B6
